B2: Cg25c NC1 domain of the tissue-extracted (endogenous) NC1 hexamer (domain or fragment, Drosophila (endogenous in fly pellet))
chain: LDYLTGILITRHSQSETVPACSAGHTELWTGYSLLYVDGNDYAHNQDLGSPGSCVPRFSTLPVLSCGQNNVCNYASRNDKTFWLTTNAAIPMMPVENIEIRQYISRCVVCEAPANVIAVHSQTIEVPDCPNGWEGLWIGYSFLMHTAVGNGGGGQALQSPGSCLEDFRATPFIECNGAKGTCHFYETMTSFWMYNLESSQPFERPQQQTIKAGERQSHVSRCQVCMKNSS
modifications: sulfilimine cross-links in the tissue-extracted hexamer
notes: collagen IV Cg25c chain of Drosophila, NC1 domain set free by collagenase; NC1 numbering starts at residue 1551 of P08120; Fly Pellet, DGRC Stock 1661280; also called Cg25c chain; source: purified from Drosophila pellet (collagenase treatment; SEC, Q-sepharose, hydroxyapatite)
B4: Cg25c NC1 domain as it stands in the single-chain CVC trimer (domain or fragment, Drosophila)
chain: LDYLTGILITRHSQSETVPACSAGHTELWTGYSLLYVDGNDYAHNQDLGSPGSCVPRFSTLPVLSCGQNNVCNYASRNDKTFWLTTNAAIPMMPVENIEIRQYISRCVVCEAPANVIAVHSQTIEVPDCPNGWEGLWIGYSFLMHTAVGNGGGGQALQSPGSCLEDFRATPFIECNGAKGTCHFYETMTSFWMYNLESSQPFERPQQQTIKAGERQSHVSRCQVCMKNSS
notes: collagen IV Cg25c chain of Drosophila, NC1 domain; NC1 numbering starts at residue 1551 of P08120; Not a free chain: joined to the Vkg NC1 domain by GSSASSG linkers on the chain of m5 (it stands there twice; the first copy carries the N-terminal FLAG tag); Made a molecule only for the pairs seen in the CVC crystal structure; source: expiCHO-S cells, as a part of the single-chain CVC trimer; …

Key:
[1] = biological target: single-chain CVC NC1 trimer (Cg25c-Vkg-Cg25c NC1 domains on one chain, FLAG-tagged, without mEmerald) (Drosophila) (UniProt P08120); experiment: SEC; trimer peaks pooled, concentrated to ~10 mg/ml, kept at 4 °C for a month (legend: about 6 months) in tris-buffered saline; peaks also pooled and rerun in tris-buffered saline; trimer to hexamer
[2] = biological target: B2; experiment: SEC; collagenase digest of Drosophila pellet; hexamer peak at 12.99 ml; then Q-sepharose and hydroxyapatite; single band of the sample not boiled cut out, trypsin or chymotrypsin digestion, MS/MS; conditions: both partners purified
[3] = biological target: the molecule itself; experiment: crystal structure; tissue-extracted NC1 hexamer, ~3.5 mg/ml, 35% MPD, 0.1 M NaCl, 100 mM Hepes pH 7.5, 22 °C; 2.98 Å
[4] = biological target: B4; experiment: crystal structure; recombinant CVC trimer, ~8.5 mg/ml, 0.1 M Na/K phosphate pH 6.5, 0.2 M NaCl, 26% PEG 1000, 22 °C; 1.75 Å; hexamer in the crystal; conditions: both partners purified
[5] = biological target: the molecule itself; experiment: as above

## single-chain CVC NC1 trimer (Cg25c-Vkg-Cg25c NC1 domains on one chain, FLAG-tagged, without mEmerald) (from UniProt P08120 1550-1779; Q9VMV5 1510-1739; P08120 1550-1779)
[1]
  percent in the hexamer peak: 25%

B1: Vkg NC1 domain of the tissue-extracted (endogenous) NC1 hexamer (domain or fragment, Drosophila (endogenous in fly pellet))
chain: APKSRGFIFARHSQSVHVPQCPANTNLLWEGYSLSGNVAASRAVGQDLGQSGSCMMRFTTMPYMLCDITNVCHFAQNNDDSLWLSTAEPMPMTMTPIQGRDLMKYISRCVVCETTTRIIALHSQSMSIPDCPGGWEEMWTGYSYFMSTLDNVGGVGQNLVSPGSCLEEFRAQPVIECHGHGRCNYYDALASFWLTVIEEQDQFVQPRQQTLKADFTSKISRCTVCRRRGN
modifications: sulfilimine cross-links in the tissue-extracted hexamer
notes: collagen IV Vkg (Viking) chain of Drosophila, NC1 domain set free by collagenase; NC1 numbering starts at residue 1511 of Q9VMV5; peptides of the tail after the NC1 domain were not detected; Fly Pellet, DGRC Stock 1661280; also called Viking; Vkg chain; source: purified from Drosophila pellet (collagenase treatment; SEC, Q-sepharose, hydroxyapatite)
[2]
  binding result: binds

## B2
[3]
  binding result: binds

B3: Vkg NC1 domain as it stands in the single-chain CVC trimer (domain or fragment, Drosophila)
chain: APKSRGFIFARHSQSVHVPQCPANTNLLWEGYSLSGNVAASRAVGQDLGQSGSCMMRFTTMPYMLCDITNVCHFAQNNDDSLWLSTAEPMPMTMTPIQGRDLMKYISRCVVCETTTRIIALHSQSMSIPDCPGGWEEMWTGYSYFMSTLDNVGGVGQNLVSPGSCLEEFRAQPVIECHGHGRCNYYDALASFWLTVIEEQDQFVQPRQQTLKADFTSKISRCTVCRRRGN
notes: collagen IV Vkg (Viking) chain of Drosophila, NC1 domain; NC1 numbering starts at residue 1511 of Q9VMV5; Not a free chain: joined on both sides to Cg25c NC1 domains by GSSASSG linkers on the chain of m5; Made a molecule only for the pairs seen in the CVC crystal structure; source: expiCHO-S cells, as a part of the single-chain CVC trimer; purified (anti-FLAG resin, SEC)
[4]
  binding result: binds

## B4
[5]
  binding result: binds
